Where two headings read alike, the source gives them in different places. *1 amine or outer side, *2 acyl side, *3 side chain or, on linkers, in order; H or OH if unused. Where no end group is shown, it is not given here. Side-chain parts run from the residue outwards. [ ]: non-standard residue; d: D form. The star is where a group is joined. γGlu = O=C(O)[C@H](CCC(=O)[*:2])N[*:1]; Palmitoyl = CCCCCCCCCCCCCCCC(=O)*; x70 = not defined here; Aib = CC(C)(N)C(=O)O
T1: human GIP receptor (human, UniProt P48546 22-466)
T1 sequence (looked up): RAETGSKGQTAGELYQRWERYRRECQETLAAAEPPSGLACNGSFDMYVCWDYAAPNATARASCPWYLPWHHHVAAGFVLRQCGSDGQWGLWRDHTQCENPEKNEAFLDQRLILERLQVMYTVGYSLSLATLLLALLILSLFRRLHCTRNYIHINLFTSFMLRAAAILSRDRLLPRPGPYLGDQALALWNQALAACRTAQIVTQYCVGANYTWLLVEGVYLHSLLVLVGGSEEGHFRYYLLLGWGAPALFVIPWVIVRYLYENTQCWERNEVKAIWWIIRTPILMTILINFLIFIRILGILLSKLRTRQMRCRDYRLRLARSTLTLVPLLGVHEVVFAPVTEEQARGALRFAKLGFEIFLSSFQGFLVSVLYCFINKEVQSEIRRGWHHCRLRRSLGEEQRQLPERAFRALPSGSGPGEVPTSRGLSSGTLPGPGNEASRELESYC

T2: human GIP receptor (hGIP R) (Homo sapiens, UniProt P48546)
T2 construct: expressed in transfected cells; host or cells: HEK-293
T2 sequence (P48546 22-466): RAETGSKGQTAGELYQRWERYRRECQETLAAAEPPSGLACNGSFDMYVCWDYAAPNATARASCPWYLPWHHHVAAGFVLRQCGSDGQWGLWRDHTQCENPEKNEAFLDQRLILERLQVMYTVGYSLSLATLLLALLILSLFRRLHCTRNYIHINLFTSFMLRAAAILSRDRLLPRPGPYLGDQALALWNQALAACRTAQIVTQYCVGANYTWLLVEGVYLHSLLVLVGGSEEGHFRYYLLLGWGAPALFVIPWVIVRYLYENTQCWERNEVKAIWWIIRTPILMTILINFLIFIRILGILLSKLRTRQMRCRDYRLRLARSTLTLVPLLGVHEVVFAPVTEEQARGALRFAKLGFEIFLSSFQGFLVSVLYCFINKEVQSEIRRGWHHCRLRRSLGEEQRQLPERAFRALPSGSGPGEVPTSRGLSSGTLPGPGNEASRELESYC


Tests used:
human GLP-1 receptor = human GLP-1 receptor (human, UniProt P43220 24-463); experiment: cell-based or functional assay
human GIP receptor = target: T1, human GIP receptor; experiment: cell-based or functional assay
[1] = target: T2, human GIP receptor (hGIP R); experiment: cAMP response of HEK-293 cells stably expressing human GIP receptor (HTRF); assay type: cell-based
Method: (§1) cAMP content of cells was determined using a kit from Cisbio Corp. (cat. no. 62AM4PEC) based on HTRF (Homogenous Time Resolved Fluorescence). For preparation, cells were split into T175 culture flasks and grown overnight to near confluency in medium (DMEM/10% FBS). Medium was then removed and cells washed with PBS lacking calcium and magnesium, followed by proteinase treatment with accutase (Sigma-Aldrich cat. no. A6964). Detached cells were washed and resuspended in assay buffer (1×HBSS; 20 mM HEPES, 0.1% BSA, 2 mM IBMX) and cellular density determined. They were then diluted to 400000 cells/ml and 25 μl-aliquots dispensed into the wells of 96-well plates. For measurement, 25 μl of test compound in assay buffer was added to the wells, followed by incubation for 30 minutes at room temperature.

[2] = target: T3, human GLP-1 receptor (hGLP-1 R) (Homo sapiens, UniProt P43220); experiment: cAMP response of HEK-293 cells stably expressing human GLP-1 receptor (HTRF); assay type: cell-based; details: cAMP formation
T3 construct: expressed in transfected cells; host or cells: HEK-293
Method: as §1

[3] = target: T4, human glucagon receptor (hGLUC R) (Homo sapiens, UniProt P47871); experiment: cAMP response of HEK-293 cells stably expressing human glucagon receptor (HTRF); assay type: cell-based; details: EC50 hGLUC R, Table 7; cAMP formation
T4 construct: expressed in transfected cells; host or cells: HEK-293
Method: as §1

human glucagon receptor = human glucagon receptor (human, UniProt P47871 26-477); experiment: cell-based or functional assay
human glucagon receptor, sequence (P47871 26-477): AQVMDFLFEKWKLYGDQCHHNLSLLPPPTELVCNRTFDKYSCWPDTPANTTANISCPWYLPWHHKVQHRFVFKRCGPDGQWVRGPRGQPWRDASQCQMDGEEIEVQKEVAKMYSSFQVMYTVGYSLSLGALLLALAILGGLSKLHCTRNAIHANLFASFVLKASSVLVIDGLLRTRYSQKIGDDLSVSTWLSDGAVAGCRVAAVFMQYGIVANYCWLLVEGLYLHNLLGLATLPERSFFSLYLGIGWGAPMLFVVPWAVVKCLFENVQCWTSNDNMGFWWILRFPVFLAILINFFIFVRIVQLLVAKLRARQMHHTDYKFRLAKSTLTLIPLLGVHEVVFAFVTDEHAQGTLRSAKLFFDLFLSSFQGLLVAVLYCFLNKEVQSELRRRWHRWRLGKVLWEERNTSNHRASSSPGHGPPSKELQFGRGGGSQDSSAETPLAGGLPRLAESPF

T3 sequence (P43220 24-463): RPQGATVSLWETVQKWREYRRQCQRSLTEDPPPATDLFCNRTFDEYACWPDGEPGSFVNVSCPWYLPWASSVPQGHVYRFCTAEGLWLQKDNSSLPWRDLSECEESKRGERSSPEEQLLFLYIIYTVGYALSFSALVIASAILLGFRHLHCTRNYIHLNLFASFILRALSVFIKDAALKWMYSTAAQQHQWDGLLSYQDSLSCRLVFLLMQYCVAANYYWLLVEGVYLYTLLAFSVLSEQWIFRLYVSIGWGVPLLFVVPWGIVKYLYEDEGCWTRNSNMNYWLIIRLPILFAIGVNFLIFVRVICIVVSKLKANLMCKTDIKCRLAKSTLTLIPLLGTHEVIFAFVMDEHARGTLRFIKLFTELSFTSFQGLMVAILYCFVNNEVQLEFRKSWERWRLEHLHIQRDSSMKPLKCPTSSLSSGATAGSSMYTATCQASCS
T4 sequence (P47871 26-477): as the sequence (P47871 26-477) above

Row | Molecule | EC50 hGLP-1 R [pM] (formed cAMP) (human GLP-1 receptor) | EC50 hGIP R [pM] (formed cAMP) (human GIP receptor) | EC50 hGLUC R [pM] (formed cAMP) (human glucagon receptor) | other results
1 | Tyr(1)Ile(12)-GLP1 (peptide) | 5 | 3660 | – | –
2 | CCCCCCCCCCCCCCCC(=O)N[C@@H](CCC(=O)NCCCC[C@H](NC(=O)[C@H](CCC(N)=O)NC(=O)[C@@H](NC(=O)[C@H](CO)NC(=O)[C@H](CC(C)C)NC(=O)[C@H](CC(=O)O)NC(=O)[C@H](CO)NC(=O)[C@@H](NC(=O)[C@H](Cc1ccccc1)NC(=O)[C@@H](NC(=O)CNC(=O)[C@H](CCC(=O)O)NC(=O)C(C)(C)NC(=O)[C@@H](N)Cc1ccc(O)cc1)[C@@H](C)O)[C@@H](C)O)[C@@H](C)CC)C(=O)N[C@@H](CCC(=O)O)C(=O)N[C@@H](CCC(=O)O)C(=O)N[C@@H](CCC(=O)O)C(=O)N[C@@H](C)C(=O)N[C@H](C(=O)N[C@@H](CCCNC(=N)N)C(=O)N[C@@H](CC(C)C)C(=O)N[C@@H](Cc1ccccc1)C(=O)N[C@H](C(=O)N[C@@H](CCC(=O)O)C(=O)N[C@@H](Cc1c[nH]c2ccccc12)C(=O)N[C@@H](CC(C)C)C(=O)N[C@@H](CCCCN)C(=O)N[C@@H](C)C(=O)NCC(=O)NCC(=O)N1CCC[C@H]1C(=O)N[C@@H](CO)C(=O)N[C@@H](CO)C(=O)NCC(=O)N[C@@H](C)C(=O)N1CCC[C@H]1C(=O)N1CCC[C@H]1C(=O)N1CCC[C@H]1C(=O)N[C@@H](CO)C(N)=O)[C@@H](C)CC)C(C)C)C(=O)O [SEQ ID NO: 11, Y-Aib-E-G-T-F-T-S-D-L-S-I-Q-K(γE-x53)-EEEAVRLFIEWLKAGGPSSGAPPPS-NH2] | – | – | – | EC50 [1]: 0.0057 nM
3 | CCCCCCCCCCCCCCCC(=O)N[C@@H](CCC(=O)NCCCC[C@H](NC(=O)[C@H](CCC(N)=O)NC(=O)[C@@H](NC(=O)[C@H](CO)NC(=O)[C@H](CC(C)C)NC(=O)[C@H](CC(=O)O)NC(=O)[C@H](CO)NC(=O)[C@@H](NC(=O)[C@H](Cc1ccccc1)NC(=O)[C@@H](NC(=O)CNC(=O)[C@H](CCC(=O)O)NC(=O)C(C)(C)NC(=O)[C@@H](N)Cc1ccc(O)cc1)[C@@H](C)O)[C@@H](C)O)[C@@H](C)CC)C(=O)N[C@@H](CCC(=O)O)C(=O)N[C@@H](CCCCN)C(=O)N[C@@H](CCC(=O)O)C(=O)N[C@@H](C)C(=O)N[C@H](C(=O)N[C@@H](CCCNC(=N)N)C(=O)N[C@@H](CC(C)C)C(=O)N[C@@H](Cc1ccccc1)C(=O)N[C@H](C(=O)N[C@@H](CCC(=O)O)C(=O)N[C@@H](Cc1c[nH]c2ccccc12)C(=O)N[C@@H](CC(C)C)C(=O)N[C@@H](CCCCN)C(=O)N[C@@H](CC(N)=O)C(=O)NCC(=O)NCC(=O)N1CCC[C@H]1C(=O)N[C@@H](CO)C(=O)N[C@@H](CO)C(=O)NCC(=O)N[C@@H](C)C(=O)N1CCC[C@H]1C(=O)N1CCC[C@H]1C(=O)N1CCC[C@H]1C(=O)N[C@@H](CO)C(N)=O)[C@@H](C)CC)C(C)C)C(=O)O [SEQ ID NO: 8, Y-Aib-E-G-T-F-T-S-D-L-S-I-Q-K(γE-x53)-EKEAVRLFIEWLKNGGPSSGAPPPS-NH2] | – | – | – | EC50 ([2]; Table 7, read-out: EC50 hGLP-1 R): 0.0201 nM; EC50 ([1]; Table 7, cAMP formation, read-out: EC50 hGIP R): 0.0167 nM
4 | CCCCCCCCCCCCCCCCCC(=O)N[C@@H](CCC(=O)NCCCC[C@H](NC(=O)[C@H](CCC(N)=O)NC(=O)[C@@H](NC(=O)[C@H](CO)NC(=O)[C@H](CC(C)C)NC(=O)[C@H](CC(=O)O)NC(=O)[C@H](CO)NC(=O)[C@@H](NC(=O)[C@H](Cc1ccccc1)NC(=O)[C@@H](NC(=O)CNC(=O)[C@H](CCC(=O)O)NC(=O)C(C)(C)NC(=O)[C@@H](N)Cc1ccc(O)cc1)[C@@H](C)O)[C@@H](C)O)[C@@H](C)CC)C(=O)N[C@@H](CCC(=O)O)C(=O)N[C@@H](CCC(=O)O)C(=O)N[C@@H](CCC(=O)O)C(=O)N[C@@H](C)C(=O)N[C@H](C(=O)N[C@@H](CCCNC(=N)N)C(=O)N[C@@H](CC(C)C)C(=O)N[C@@H](Cc1ccccc1)C(=O)N[C@H](C(=O)N[C@@H](CCC(=O)O)C(=O)N[C@@H](Cc1c[nH]c2ccccc12)C(=O)N[C@@H](CC(C)C)C(=O)N[C@@H](CCCCN)C(=O)NC(C)(C)C(=O)NCC(=O)NCC(=O)N1CCC[C@H]1C(=O)N[C@@H](CO)C(=O)N[C@@H](CO)C(=O)NCC(=O)N[C@@H](C)C(=O)N1CCC[C@H]1C(=O)N1CCC[C@H]1C(=O)N1CCC[C@H]1C(=O)N[C@@H](CO)C(N)=O)[C@@H](C)CC)C(C)C)C(=O)O [SEQ ID NO: 12, Y-Aib-E-G-T-F-T-S-D-L-S-I-Q-K(γE-x70)-E-E-E-A-V-R-L-F-I-E-W-L-K-Aib-G-G-P-S-S-G-A-P-P-P-S-NH2] | – | – | – | EC50 ([2]; EC50 hGLP-1 R, Table 7): 0.0119 nM; EC50 [3]: 95.9 nM
5 | H-YAEGTFTSDVSIYLEGQAAKEFIAWLVKGR-NH2 [SEQ ID NO: 7, YAEGTFTSDVSIYLEGQAAKEFIAWLVKGR-NH2, reference compound] | – | – | – | EC50 ([2]; Table 2, read-out: EC50 hGLP-1 R): 0.005 nM; EC50 ([1]; Table 2, cAMP formation, read-out: EC50 hGIP R): 3.66 nM
6 | Y[Aib]EGTFTSDLSIQK([γGlu-x70])EKEAVRLFIEWLKAGGPSSGAPPPS-NH2 (reading uncertain) [SEQ ID NO: 13] | 21.2 | 16.8 | 200000 | –
7 | Y[Aib]EGTFTSDLSIQK([γGlu-x70])EEEAVRLFIEWLK[Aib]GGPSSGAPPPS-NH2 (reading uncertain) [SEQ ID NO: 9] | 26.7 | 14.6 | 164000 | –
8 | Y[Aib]EGTFTSDLSIQK([γGlu-Palmitoyl])EEEAVRLFIEWLKAGGPSSGAPPPS-NH2 (N-terminus assumed; SMILES CCCCCCCCCCCCCCCC(=O)N[C@@H](CCC(=O)NCCCC[C@H](NC(=O)[C@H](CCC(N)=O)NC(=O)[C@@H](NC(=O)[C@H](CO)NC(=O)[C@H](CC(C)C)NC(=O)[C@H](CC(=O)O)NC(=O)[C@H](CO)NC(=O)[C@@H](NC(=O)[C@H](Cc1ccccc1)NC(=O)[C@@H](NC(=O)CNC(=O)[C@H](CCC(=O)O)NC(=O)C(C)(C)NC(=O)[C@@H](N)Cc1ccc(O)cc1)[C@@H](C)O)[C@@H](C)O)[C@@H](C)CC)C(=O)N[C@@H](CCC(=O)O)C(=O)N[C@@H](CCC(=O)O)C(=O)N[C@@H](CCC(=O)O)C(=O)N[C@@H](C)C(=O)N[C@H](C(=O)N[C@@H](CCCNC(=N)N)C(=O)N[C@@H](CC(C)C)C(=O)N[C@@H](Cc1ccccc1)C(=O)N[C@H](C(=O)N[C@@H](CCC(=O)O)C(=O)N[C@@H](Cc1c[nH]c2ccccc12)C(=O)N[C@@H](CC(C)C)C(=O)N[C@@H](CCCCN)C(=O)N[C@@H](C)C(=O)NCC(=O)NCC(=O)N1CCC[C@H]1C(=O)N[C@@H](CO)C(=O)N[C@@H](CO)C(=O)NCC(=O)N[C@@H](C)C(=O)N1CCC[C@H]1C(=O)N1CCC[C@H]1C(=O)N1CCC[C@H]1C(=O)N[C@@H](CO)C(N)=O)[C@@H](C)CC)C(C)C)C(=O)O) [SEQ ID NO: 11] | 9.3 | 5.7 | 429000 | –
9 | Y[Aib]EGTFTSDLSIQK([γGlu-x70])EEEAVRLFIEWLK[Aib]GGPSSGAPPPS-NH2 (reading uncertain) [SEQ ID NO: 12] | 11.9 | 14.6 | 95900 | –
10 | Y[Aib]EGTFTSDLSIQK([γGlu-x70])EEEAVRLFIEWLKAGGPSSGAPPPS-NH2 (reading uncertain) [SEQ ID NO: 10] | 12.5 | 6.7 | > 1e+06 | –

Reference: US20140206608A1 (priority 2012, published 2014)
